B1: Tmab-CLC5 (antibody, V domains shown)
VH: not shown
VL: DIQMTQSPSSLSASVGDRVTITCKASQDVSIGVAWYQQKPGKAPKLLIYSASYRYTGVPSRFSGSGSGTDFTLTISSLQPEDFATYYCQQYYIYPYTFGQGTKVEIKR
B2: Tmab-CLC6 (antibody, V domains shown)
VH: not shown
VL: DIQMTQSPSSLSASVGDRVTITCKASQDVSIGVAWYQQKPGKAPKLLIYSASYRYTGVPSRFSGSGSGTDFTLTISSLQPEDFATYYCQQYYITPYTFGQGTKVEIKR
B3: Pmab-CLC2 (antibody, V domains shown)
VH: EVQLVESGGGLVQPGGSLRLSCAASGFTFTDYTMDWVRQAPGKGLEWVADVNPNSGGSIYNQRFKGRFTLSVDRSKNTLYLQMNSLRAEDTAVYYCARNLGPSFYFDYWGQGTLVTVSS
VL: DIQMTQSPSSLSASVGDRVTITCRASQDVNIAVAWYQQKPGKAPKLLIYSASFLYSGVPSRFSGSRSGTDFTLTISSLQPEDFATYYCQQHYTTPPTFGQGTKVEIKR
B4: Pmab-CLC4 (antibody, V domains shown)
VH: EVQLVESGGGLVQPGGSLRLSCAASGFTFTDYTMDWVRQAPGKGLEWVADVNPNSGGSIYNQRFKGRFTLSVDRSKNTLYLQMNSLRAEDTAVYYCARNLGPSFYFDYWGQGTLVTVSS
VL: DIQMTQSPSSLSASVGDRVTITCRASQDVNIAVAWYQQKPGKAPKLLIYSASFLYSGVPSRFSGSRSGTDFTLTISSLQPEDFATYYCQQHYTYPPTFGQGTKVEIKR
B5: Pmab-CLC6 (antibody, V domains shown)
VH: EVQLVESGGGLVQPGGSLRLSCAASGFTFTDYTMDWVRQAPGKGLEWVADVNPNSGGSIYNQRFKGRFTLSVDRSKNTLYLQMNSLRAEDTAVYYCARNLGPSFYFDYWGQGTLVTVSS
VL: DIQMTQSPSSLSASVGDRVTITCKASQDVSIGVAWYQQKPGKAPKLLIYSASYRYTGVPSRFSGSGSGTDFTLTISSLQPEDFATYYCQQYYITPYTFGQGTKVEIKR
B6: Pmab-CLC3 (antibody, V domains shown)
VH: EVQLVESGGGLVQPGGSLRLSCAASGFTFTDYTMDWVRQAPGKGLEWVADVNPNSGGSIYNQRFKGRFTLSVDRSKNTLYLQMNSLRAEDTAVYYCARNLGPSFYFDYWGQGTLVTVSS
VL: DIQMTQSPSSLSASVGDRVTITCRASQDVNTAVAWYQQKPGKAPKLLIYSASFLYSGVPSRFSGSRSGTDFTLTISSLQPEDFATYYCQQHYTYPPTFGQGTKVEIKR

Biological target: HER2m1-Fc (UniProt P04626 23-652)
Experiment: ELISA

Q: With B1 as the binder, how does the EC50 read?
A: The EC50 was 0.616 µg/mL.

Q: With B2 as the binder, how does the EC50 read?
A: The EC50 was 1.1 µg/mL.

Biological target: HER2m2-Fc (UniProt P04626 23-652)
Experiment: ELISA

Q: B3 was tested. Which EC50 did it give?
A: The EC50 was 0.598 µg/mL.

Q: For B4, which EC50 is on record?
A: The EC50 was 0.479 µg/mL.

Q: For B5, which EC50 is on record?
A: The EC50 was 0.393 µg/mL.

Q: How did the EC50 turn out when B6 was run?
A: The EC50 was 0.49 µg/mL.

Reference: patent publication US20210070885A1 (published 2021)
